Measured values taken from patent publication US20240084044A1, “Heteromultivalent Nucleic Acid Scaffolds and Uses Thereof” (George Mason University, priority 2022, published 2024).
“And” between values parts separate entries of the source, which are not always exact repeats. Equal values may be shown once. Bridges are numbered along the chain shown (N, C = ends). Roman numbers before positions name the chains, in order.

Target: T1, ST2/IL-33 binary complex (Homo sapiens, UniProt O95760+Q01638)
T1 construct: included the extracellular domains, K19-F328 and S21-E359, respectively; the cleaved mature proteins, S112-T270, A117-S269, and R2-S310, respectively; purchased Sino Biologicals ST2 10105-HCCH; IL-33 10368-HNAE; host or cells: ST2: HEK293; IL-33: E. coli
T1 sequence (Q01638 19-328 isoform Q01638-2): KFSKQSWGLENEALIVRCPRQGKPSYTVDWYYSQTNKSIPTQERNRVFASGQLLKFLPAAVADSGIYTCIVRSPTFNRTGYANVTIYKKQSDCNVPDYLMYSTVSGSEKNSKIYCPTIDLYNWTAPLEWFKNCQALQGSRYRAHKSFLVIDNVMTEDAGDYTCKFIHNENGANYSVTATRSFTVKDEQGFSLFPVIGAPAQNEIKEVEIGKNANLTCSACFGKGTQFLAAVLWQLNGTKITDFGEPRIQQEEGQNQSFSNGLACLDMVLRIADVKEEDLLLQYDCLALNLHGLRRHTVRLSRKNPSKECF
T1 sequence (O95760 112-270): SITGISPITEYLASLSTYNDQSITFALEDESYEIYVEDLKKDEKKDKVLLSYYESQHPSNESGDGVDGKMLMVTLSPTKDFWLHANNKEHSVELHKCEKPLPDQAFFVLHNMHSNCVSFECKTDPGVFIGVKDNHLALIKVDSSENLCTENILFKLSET
Assay: SPR dissociation constant for the ST2/IL-33 binary complex
Type: binding
Description: Recombinant ST2 with truncated FLAG (DDDDK) tag (Cat. #10105-HCCH), His-tagged IL1RAcP (Cat. #10121-H08H), IL-33 (Cat. #10368-HNAE), IL-1β (Cat. #10139-HNAE), and FLAG-tagged SIRT5 (Cat. #19202-H22E) were purchased from Sino Biologicals (Wayne, PA). ST2 and IL1RAcP were expressed in HEK293 cells and included the extracellular domains, K19-F328 and S21-E359, respectively. IL-33, IL-1β, and SIRT5 were expressed in E. coli and included the residue sequence of the cleaved mature proteins, S112-T270, A117-S269, and R2-S310, respectively. Lyophilized ST2, and IL1RAcP were reconstituted in ultrapure (18.5 MΩ) water to a concentration of 0.5 mg/mL (5.6 μM) and stored at −80° C. until use. SIRT5 was reconstituted to 0.2 mg/mL (2.87 μM). To prevent oxidation, IL-33 was reconstituted in 10 mM β-mercaptoethanol (Sigma-Aldrich) to a concentration of 0.1 mg/mL and IL-1β was reconstituted to 0.250 mg/mL. All peptides were purchased from Peptide 2.0 (Chantilly, VA) and designed based on IL1RAcP hotspot residues known to interact with IL-33/ST2 and surrounding residues based on the canonical sequence of IL1RAcP (Uniprot #Q9NPH3). All peptides were modified with acetylated N-terms and amidated C-terms to optimize stability and cyclic peptides cyclized via thioether or disulfide bond. Candidate peptides for the final molecule were also modified with an azido-Lysine and additional N-term alanine or cysteine, to provide the azide group for copper free click chemistry and maintain cyclization. Peptides were stored at −20° C. in lyophilized aliquots of 100 μg or 200 μg and −80° C. after reconstitution in sterile DMSO to a concentration of 10 mM.
SPR experiments were carried out on an OpenSPR instrument (Nicoya). Gold nanoparticle sensor chips (Nicoya) were functionalized by incubation in a solution of ethanol and 10 mM 11-Mercaptoundecanoic acid (MUDA) at RT for a minimum of 48 h, then stored in ethanol at 4° C. until use. Chips were activated with a solution of 200 mM EDC and 50 mM NHS for 3 m at RT. […] Data was analyzed with TraceDrawer software to a 1:1 fit model.

MSTOP: 3WJ DNA scaffold whose three DBCO staple strands carry cyclized azidolysine IL-1RAcP hotspot peptides; decoy for IL-33/ST2 (peptide 1 Ac-CKEYGIQRITC-NH2; peptide 2 Ac-AKVGSPKNAVPPC-NH2; peptide 3 Ac-CKGEVAKAAKVKC-NH2; disulfide I:1-I:11, III:1-III:13; thioether II:1-II:13; not fully specified (some residues); also: three peptides held on a 3-way junction DNA scaffold via DBCO staple strands)
increase in affinity compared to the individual peptides and IL-1RAcP (SPR KD comparison): ~100 fold and 100 fold | Kd (SPR, 1:1 fit, read-out: KD (affinity) to the binary ST2/IL-33 complex): 0.195 µM and < 0.2 µM
